Measured values taken from patent publication US20110212084A1 (AstraZeneca / MedImmune, published 2011).

T1: Cynomolgus Cε3-4 FLAG His10 (cynomolgus monkey)
T1 construct: also called cynomolgus IgE Cε3-Cε4 domain (in house HEK-EBNA derived)
T1 chain: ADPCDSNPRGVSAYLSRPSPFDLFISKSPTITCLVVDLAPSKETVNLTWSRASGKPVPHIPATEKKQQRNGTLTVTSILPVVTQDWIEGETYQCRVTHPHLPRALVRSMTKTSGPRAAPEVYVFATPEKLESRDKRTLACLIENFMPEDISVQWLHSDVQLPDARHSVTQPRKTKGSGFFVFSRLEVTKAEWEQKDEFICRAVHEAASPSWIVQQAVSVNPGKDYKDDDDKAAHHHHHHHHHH


Key:
[1] = target: human IgEλ (U266 derived) (human, UniProt P01854 1-546); experiment: cell-based or functional assay
[2] = target: T2, cynomolgus IgE (recombinant chimaeric D12 variable region / cynomolgus IgE constant region) (cynomolgus monkey (constant region)); experiment: cell-based or functional assay
[3] = target: T3, human IgE (source not stated for the assay) (human, UniProt P01854-1 1-428); experiment: SPR, BIAcore 2000; IgE amine-coupled to CM5 chip, IgG as analyte, bivalent analyte model; geomean
T3 construct: also called purified human IgE; IgE (Calbiochem or U266-derived)
Procedure: (§1) The binding affinity of purified IgG samples of a representative number of clones to human and cynomolgus IgE was determined by surface plasmon resonance using BIAcore 2000 biosensor (BIAcore AB) essentially as described by Karlsson et al 1991; Journal of Immunological Methods 145 (1-2) 229-240. In brief, purified human or cynomolgus IgE was covalently coupled to the surface of a CM5 sensor chip (BIAcore) using standard amine coupling reagents according to the manufacturer's instructions to provide a surface density of 100 RU. IgG samples prepared in HBS-EP buffer (BIAcore (AB), at a range of concentrations, between 250 nM and 15.6 nM were passed over the sensor chip surface. The surface was regenerated using 10 mM Glycine, pH 1.75 between each injection of antibody. The resulting sensorgrams were evaluated using BIA evaluation 3.1 software and fitted to a bivalent analyte model, to provide relative binding data.

[4] = target: T2, cynomolgus IgE (recombinant chimaeric …); experiment: SPR, BIAcore 2000; cynomolgus IgE amine-coupled to CM5 chip, IgG as analyte, bivalent analyte model; geomean
Procedure: as §1

[5] = target: T4, human IgEλ (U266 derived) (human, UniProt P01854 1-546); experiment: cell-based or functional assay; remark: listed apart in the source
[6] = target: T4, human IgEλ (U266 derived); experiment: flow cytometry competition; IgG titrated, mixed with IgE (U266, 10 µg/mL), IgE binding to CD23 on IL-4 treated IM9 cells
Procedure: Some of these optimised antibodies were evaluated for inhibition of the IgE/CD23 interaction using the IM9 binding assay as previously described.
Antibody dilutions (667 nM to 1 nM) were prepared in U-bottomed polypropylene plates (Greiner) and mixed with IgE (U266-derived [Ikeyama et. al. 1986. Molecular Immunology 23 (2); p159-167]) to a final IgE concentration of 10 μg/mL for 30 minutes at room temperature. Cell plates were spun at 2000 rpm for 2 minutes and supernatant was aspirated, leaving the cell pellet intact. Cells were resuspended in 100 μL/well antibody/IgE mix and incubated on ice for 1 hour. Cell plates were centrifuged at 2000 rpm for 2 minutes and antibody/IgE supernatants were aspirated. Cells were washed by resuspending in 200 μL/well of Flow buffer and centrifuging as above.
IgE bound to the cell surface was detected with anti-IgE-phycoerythin (Caltag) diluted 1/30, v/v, 100 μL/well. Assay plates were incubated on ice for 20 minutes in the dark before centrifuging at 2000 rpm for 2 minutes and washing with 2×200 μL of Flow buffer as described above. Cells were resuspended in 100 μL Cell Fix (BD biosciences) and analysed using a FACSCalibur (BD Biosciences) to detect FL2 staining.

[7] = target: T4, human IgEλ (U266 derived); experiment: cell-based or functional assay; remark: listed apart in the source
[8] = target: T1, Cynomolgus Cε3-4 FLAG His10; experiment: DELFIA epitope competition; competitor vs biotinylated human IgE on immobilised IgG
Procedure: (§2) Purified IgG were adsorbed onto 96-well Maxisorp microtitre plates (Nunc) in PBS at a concentration which gave a significant signal when biotinylated human IgE was added at approximately its estimated KD for that particular IgG. Excess IgG was washed away with PBS-Tween (0.1% v/v) and the wells were blocked with PBS-Marvel (3% w/v) for 1 h. […] To this series, an equal volume of biotinylated human IgE at a concentration of approximately the KD was added (resulting in a series starting at a ratio of competitor antigen:biotinylated human IgE of approximately 1000:1). These mixtures were then transferred onto the blocked IgG and allowed to equilibrate for 1 h. Unbound antigen was removed by washing with PBS-Tween (0.1% v/v), while the remaining biotinylated human IgE was detected by streptavidin-Europium3+ conjugate (DELFIA® detection, PerkinElmer). Time-resolved fluorescence was measured at 620 nm on an EnVision plate reader (PerkinElmer). Fluorescence data were analysed using either Graphpad Prism or Microsoft Excel software.

[9] = target: T5, human IgE Cε3-Cε4 domain, C-terminally tagged with FLAG His10 (human, UniProt P01854-1 209-428, limits assumed); experiment: as above
T5 construct: domain: Cε3-Cε4; secreted with murine IgG1 leader from HEK293-EBNA cells; also called human IgE Ce3-4; human IgE Cε3-Cε4 domain (in house HEK-EBNA derived)
Procedure: as §2

[10] = target: T3, human IgE (source not stated for the …); experiment: cell-based or functional assay

T2 sequence (heavy, as listed by the source limits assumed, chain 1 of 2): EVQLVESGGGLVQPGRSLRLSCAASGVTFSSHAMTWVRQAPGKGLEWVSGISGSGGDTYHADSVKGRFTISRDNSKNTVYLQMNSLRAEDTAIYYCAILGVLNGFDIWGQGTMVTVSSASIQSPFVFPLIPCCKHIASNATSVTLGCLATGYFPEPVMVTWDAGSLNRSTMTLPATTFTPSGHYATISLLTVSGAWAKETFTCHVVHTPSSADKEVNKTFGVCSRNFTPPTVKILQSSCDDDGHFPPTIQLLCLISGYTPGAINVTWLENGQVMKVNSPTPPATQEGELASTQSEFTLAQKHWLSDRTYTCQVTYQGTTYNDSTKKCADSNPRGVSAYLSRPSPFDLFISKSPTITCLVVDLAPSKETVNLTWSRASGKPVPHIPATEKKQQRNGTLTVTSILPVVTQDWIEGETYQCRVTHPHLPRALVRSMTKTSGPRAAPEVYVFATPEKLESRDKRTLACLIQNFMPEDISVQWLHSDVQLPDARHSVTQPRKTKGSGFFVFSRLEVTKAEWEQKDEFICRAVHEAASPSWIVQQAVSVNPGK
T2 sequence (light, as listed by the source limits assumed, chain 2 of 2): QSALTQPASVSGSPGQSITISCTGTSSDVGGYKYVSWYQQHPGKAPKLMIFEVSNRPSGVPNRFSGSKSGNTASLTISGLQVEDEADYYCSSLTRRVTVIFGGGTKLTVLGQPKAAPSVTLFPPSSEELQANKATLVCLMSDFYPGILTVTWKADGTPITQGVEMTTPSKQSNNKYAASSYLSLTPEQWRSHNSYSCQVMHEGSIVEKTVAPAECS
T3 sequence (P01854 other isoform, or with tags, fused parts or gaps): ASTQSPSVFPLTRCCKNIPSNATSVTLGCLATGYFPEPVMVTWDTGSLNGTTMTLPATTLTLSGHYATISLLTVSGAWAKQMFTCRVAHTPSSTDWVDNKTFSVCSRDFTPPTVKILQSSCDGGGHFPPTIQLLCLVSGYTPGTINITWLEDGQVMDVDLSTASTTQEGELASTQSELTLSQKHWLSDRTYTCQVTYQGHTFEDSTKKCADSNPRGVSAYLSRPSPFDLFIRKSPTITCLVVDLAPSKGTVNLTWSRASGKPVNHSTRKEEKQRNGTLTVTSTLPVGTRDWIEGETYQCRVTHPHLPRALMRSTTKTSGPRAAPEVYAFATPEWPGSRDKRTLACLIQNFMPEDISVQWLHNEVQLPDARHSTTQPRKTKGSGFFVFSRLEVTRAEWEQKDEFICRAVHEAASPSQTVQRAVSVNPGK
T5 sequence (P01854 other isoform, or with tags, fused parts or gaps limits assumed): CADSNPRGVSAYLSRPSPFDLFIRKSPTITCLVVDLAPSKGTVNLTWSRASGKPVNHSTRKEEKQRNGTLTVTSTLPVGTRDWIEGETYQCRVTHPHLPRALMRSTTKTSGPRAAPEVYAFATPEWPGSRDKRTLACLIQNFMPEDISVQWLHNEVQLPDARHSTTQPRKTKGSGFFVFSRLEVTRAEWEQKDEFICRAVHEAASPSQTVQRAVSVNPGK

| Binder | RBL-ER51 calcium signalling IC50 (nM) Geomean, human IgE 25 ng/ml [1] [nM] | RBL-ER51 calcium signalling IC50 (nM) Geomean, cynomolgus IgE 100 ng/ml [2] [nM] | Kd [3] [nM] | also measured |
| --- | --- | --- | --- | --- |
| Antibody 26 (IgG) (antibody, V domains shown) VH: EVQLLESGGGLVQPGGSLRLSCAASGLTFSGYAMSWVRQAPGKGLEWVSAISGSGGRTYYADSVKGRFTISRDNSKNMLYLQMNSLRAEDTAVYYCARHIAVAGTRGFDYWGRGTLVTVSS VL: SFVLTQPPSVSVSPGQTASITCSGDKLGDTYASWYRQRSGQSPVLVIYQDDKRPSGIPERFSGSNSGNTATLTIGGTHTMDEADYYCLAWDTRTSGAVFGGGTKLTVL | 1.2 | 17 |  |  |
| Antibody 15 (IgG) (antibody, V domains shown) VH: EVQLLESGGGLVQPGGSLRLSCAAPGFTFSSYAMSWVRQAPGKGLEWVSAISGGSGGRTYYADSVKGRFTISRDNSKNTLYLQMNSLRAEDTAVYYCARHIAVAGTRGFDYWGRGTLVTVSS VL: SYVLTQPPSVSVSPGQTASITCSGDKLGDTYASWYRQRSGQSPVLVIYQDDRRPSGIPERFSGSNSGNTATLTISGTHTMDEADYYCLAWDTRTSGAVFGGGTKLTVL | 0.341 | 5.4 | 0.9 | Kd [4]: 7 nM |
| Antibody 33 (IgG) (antibody, V domains shown) VH: EVQLLESGGGLVQPGGSLSLSCAAPGFTFSSYAMSWVRQAPGKGLEWVSAISGGSGGRTYYADSVKGRFTISKDNSKNTLYLQMNSLRAEDTAVYYCARHIAVAGTRGFDYWGRGTLVTVSS VL: SYVLTQPPSVSVSPGQTASITCSGDKLGDTYASWYRQRSGLSPALVIYQDDKRPSGIPERFSGSNSGNTATLTISGTHTMDEADYYCLAWDTRTSGAVFGGGTKLTVL |  | 5.1 | 0.8 | Kd [4]: 2.3 nM; RBL-ER51 calcium signalling IC50 (nM) Geomean, human IgE 25 ng/ml [5]: 0.112 nM; IC50 [6]: 83 nM |
| Antibody 33GL (germlined IgG) (antibody, V domains shown, germlined IgG; also called Antibody 35 (provisional application)) VH: EVQLLESGGGLVQPGGSLSLSCAAPGFTFSSYAMSWVRQAPGKGLEWVSAISGGSGGRTYYADSVKGRFTISKDNSKNTLYLQMNSLRAEDTAVYYCARHIAVAGTRGFDYWGRGTLVTVSS VL: SYELTQPPSVSVSPGQTASITCSGDKLGDTYASWYQQKPGLSPALVIYQDDKRPSGIPERFSGSNSGNTATLTISGTQAMDEADYYCLAWDTRTSGAVFGGGTKLTVL |  |  | 0.142 | RBL-ER51 calcium signalling IC50 (nM) Human IgE Geomean [7]: 0.197 nM; binding result [8]: no binding; binding result [9]: no binding |
| Antibody 34 (IgG) (antibody, V domains shown) VH: EVQLLESGGGLVQPGGSLRLSCAAPGFTLSSYAMSWVRQAPGKGLEWVSAISGGSGGRTYYADSVKGRFTISRDNSKNTLYLQMNSLRAEDTAVYYCARHIAVAGTRGFDYWGRGTLVTVSS VL: SYVLTQPPSVSASPGQTASITCSGDKLGDTYASWYRQRSGQSPVLVIYQDDKRPPGIPERFSGSNSGNTATLTIRGTHTMDEADYYCLAWDTRTSGAVFGGGTKLSVL | 0.223 | 22 | 26 |  |
| Antibody 1 (IgG) (antibody, V domains shown, also called parent antibody) VH: not shown VL: SYVLTQPPSVSVSPGQTASITCSGDKLGDKYASWYRQRSGQSPVLVIYQDDKRPSGIPERFSGSNSGNTATLTISGTHTMDEADYYCLAWDTRTSGAVFGGGTKLTVL |  |  |  | RBL-ER51 calcium signalling IC50 [10]: 267 nM; binding result [8]: no binding; binding result [9]: no binding |
| Antibody 9 (IgG) (antibody, V domains shown) VH: EVQLLESGGGLVQPGGSLRLSCAASGFTFSSYAMSWVRQAPGKGLEWVSAISGGSGGRTYYADSVKGRFTISRDNSKNTLYLQMNSLRAEDTAVYYCARHIAVAGTRGFDYWGRGTLVTVSS VL: SFVLSQPPSVSVSPGQTASITCSGDKLGDTYASWYRQRSGQSPVLVIYQDDKRPSGIPERFSGSNSGNTATLTISGTHTMDEADYYCLAWDTRTSGAVFGGGTKLTVL | 0.286 | 4.5 | 79 |  |
